{
  "source": "the supplement of paper PMC10126150",
  "note": "± gives the standard deviation of the averaged measurements.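 Note: ATP exposure 15 min at 22 °C before imaging.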",
  "data": [
    {"tested_on": "ATP", "test": "switch fluorescence ratio, 500 uM ATP over buffer (Cy3 cluster intensity, sum of 5 cycles each) (fold (ratio)); higher = stronger signal-on switching upon ATP binding; sequences stand for … in TCGTCGGCAGCGTCAGATGTGTATAAGAGACAGTTTTTTTTTTTTTTTTTTTTTTTTT…TC", "conditions": "aptamer strand: ATP DNA aptamer (quencher-CACCTGGGGGAGTATTGCGGAGGAAGG + anchor), 100 nM annealed; ATP concentration: 500 uM", "outline": "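Imaging in selection buffer was followed by imaging after 15 min with 500 uM ATP at 22 °C, for Cy3-labelled switching-strand clusters annealed to 100 nM quencher-labelled ATP aptamer on a modified Illumina MiSeq flow-cell. Five of these buffer/ATP cycles ran, separated by NaOH stripping and re-annealing. The fluorescence ratio per cluster is summed target-cycle over summed buffer-cycle Cy3 intensity, averaged per switch-domain sequence; clusters outside 100-1000 RFU were removed.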", "values": [
      {"sequence": "TTCATAACAA", "switch fluorescence ratio": "1.02 ± 0.022"},
      {"sequence": "TTATTTGAGT", "switch fluorescence ratio": "1.06 ± 0.12"},
      {"sequence": "CGTCACAGTG", "switch fluorescence ratio": "1.04 ± 0.019"},
      {"sequence": "CAGTGCGTGG", "switch fluorescence ratio": "0.988 ± 0.017"},
      {"sequence": "GTTGATAAGA", "switch fluorescence ratio": "0.982 ± 0.035"},
      {"sequence": "GGCTTTGGGG", "switch fluorescence ratio": "0.975 ± 0.04"},
      {"sequence": "CTATCTTTAG", "switch fluorescence ratio": "0.9891 ± 0.0043"},
      {"sequence": "AAGGAGGCAG", "switch fluorescence ratio": "1.03 ± 0.045"},
      {"sequence": "CGTTGGCAGC", "switch fluorescence ratio": "1.03 ± 0.028"},
      {"sequence": "TGGGGGGACA", "switch fluorescence ratio": "0.985 ± 0.015"},
      {"sequence": "TCCTAGGGGG", "switch fluorescence ratio": "1 ± 0.026"},
      {"sequence": "TATTTGGGCA", "switch fluorescence ratio": "1.01 ± 0.041"},
      {"sequence": "CGGCGTACAT", "switch fluorescence ratio": "1.04 ± 0.02"},
      {"sequence": "CCAGGAGTGT", "switch fluorescence ratio": "1.08 ± 0.012"},
      {"sequence": "GGGCTTTGGG", "switch fluorescence ratio": "1.008 ± 0.0068"},
      {"sequence": "AGTTACGCGC", "switch fluorescence ratio": "1.04 ± 0.032"},
      {"sequence": "GGGGAAAACG", "switch fluorescence ratio": "0.989 ± 0.015"},
      {"sequence": "CGAGACAGGG", "switch fluorescence ratio": "1 ± 0.036"},
      {"sequence": "CAGGCAGGTC", "switch fluorescence ratio": "0.997 ± 0.024"},
      {"sequence": "GGTCTATTTT", "switch fluorescence ratio": "0.986 ± 0.023"},
      {"sequence": "CGATCCGGGC", "switch fluorescence ratio": "1.05 ± 0.043"},
      {"sequence": "GGGGAGTTTC", "switch fluorescence ratio": "1.065 ± 0.0042"},
      {"sequence": "CTCTGTGACG", "switch fluorescence ratio": "1.03 ± 0.012"},
      {"sequence": "TTCATGAGTT", "switch fluorescence ratio": "1 ± 0.0022"},
      {"sequence": "GCTGTAAAAA", "switch fluorescence ratio": "1.08 ± 0.063"},
      {"sequence": "ATAACTACTA", "switch fluorescence ratio": "1.06 ± 0.015"},
      {"sequence": "GGGGACTGCG", "switch fluorescence ratio": "1.05 ± 0.023"},
      {"sequence": "GATATTAGTG", "switch fluorescence ratio": "0.9827 ± 0.0044"},
      {"sequence": "TAGTTATTA", "switch fluorescence ratio": "0.989 ± 0.026"},
      {"sequence": "TATAATGGGC", "switch fluorescence ratio": "0.965 ± 0.031"},
      {"sequence": "AACGGGGGCT", "switch fluorescence ratio": "0.9778 ± 0.006"},
      {"sequence": "GATGGCAGCG", "switch fluorescence ratio": "1.05 ± 0.045"},
      {"sequence": "ATATTTTGAC", "switch fluorescence ratio": "1.05 ± 0.061"},
      {"sequence": "AAATTTTGTT", "switch fluorescence ratio": "0.987 ± 0.021"},
      {"sequence": "AAAATGGTAA", "switch fluorescence ratio": "1.001 ± 0.0057"},
      {"sequence": "TGGGATATTA", "switch fluorescence ratio": "0.9995 ± 0.007"},
      {"sequence": "AAGCACCGGG", "switch fluorescence ratio": "1.08 ± 0.085"},
      {"sequence": "CCCGTGGAAA", "switch fluorescence ratio": "1.09 ± 0.1"},
      {"sequence": "CTAATTGCCA", "switch fluorescence ratio": "0.994 ± 0.017"},
      {"sequence": "TAAAAATGTT", "switch fluorescence ratio": "0.988 ± 0.021"},
      {"sequence": "CAGAAGCCTG", "switch fluorescence ratio": "1.014 ± 0.0028"},
      {"sequence": "ATCAGTTTGG", "switch fluorescence ratio": "1.01 ± 0.015"},
      {"sequence": "GGTTTTAGCT", "switch fluorescence ratio": "0.997 ± 0.016"},
      {"sequence": "GATGGCGGGA", "switch fluorescence ratio": "1.02 ± 0.025"},
      {"sequence": "ATTTTTAGT", "switch fluorescence ratio": "1 ± 0.016"},
      {"sequence": "AAGTCCGGCA", "switch fluorescence ratio": "1 ± 0.037"},
      {"sequence": "AGTAAGGGGC", "switch fluorescence ratio": "0.98 ± 0.019"},
      {"sequence": "ATTAAAGGGG", "switch fluorescence ratio": "1 ± 0.023"},
      {"sequence": "GGTCTGGTTT", "switch fluorescence ratio": "0.956 ± 0.013"},
      {"sequence": "ATTATGGCGC", "switch fluorescence ratio": "0.967 ± 0.0049"},
      {"sequence": "TTTGCCTGCT", "switch fluorescence ratio": "1.01 ± 0.043"},
      {"sequence": "TCTATTGGTT", "switch fluorescence ratio": "0.966 ± 0.021"},
      {"sequence": "TTGTTGGTTT", "switch fluorescence ratio": "1.02 ± 0.05"},
      {"sequence": "AGAAGGCAAC", "switch fluorescence ratio": "1.015 ± 0.0017"},
      {"sequence": "TTTCGGGAGC", "switch fluorescence ratio": "0.977 ± 0.049"},
      {"sequence": "GTACGACAAG", "switch fluorescence ratio": "1.11 ± 0.042"},
      {"sequence": "CGATGTAGGC", "switch fluorescence ratio": "1.05 ± 0.088"},
      {"sequence": "ACCAGATGCG", "switch fluorescence ratio": "1.01 ± 0.03"},
      {"sequence": "TCGTCGTACG", "switch fluorescence ratio": "1.02 ± 0.021"},
      {"sequence": "TGAAAGGGAA", "switch fluorescence ratio": "0.9898 ± 0.0074"},
      {"sequence": "CGAGCTTTAG", "switch fluorescence ratio": "1.024 ± 0.0033"},
      {"sequence": "AAGGTATTGA", "switch fluorescence ratio": "0.9782 ± 0.0046"},
      {"sequence": "TAAGGTTGGG", "switch fluorescence ratio": "0.993 ± 0.021"},
      {"sequence": "GCGGGGAGGT", "switch fluorescence ratio": "1.01 ± 0.055"},
      {"sequence": "TTTCATAAGT", "switch fluorescence ratio": "0.999 ± 0.025"},
      {"sequence": "AGGGGCAAAC", "switch fluorescence ratio": "1.45 ± 0.078"},
      {"sequence": "GATTAAAGGT", "switch fluorescence ratio": "1.01 ± 0.025"},
      {"sequence": "TTATATTGGT", "switch fluorescence ratio": "0.974 ± 0.028"},
      {"sequence": "CTGTCGAGGC", "switch fluorescence ratio": "0.977 ± 0.053"},
      {"sequence": "AAAGGAGGTC", "switch fluorescence ratio": "1.05 ± 0.033"},
      {"sequence": "TTATGAGAGC", "switch fluorescence ratio": "0.964 ± 0.022"},
      {"sequence": "GAAGGACAGA", "switch fluorescence ratio": "1 ± 0.018"},
      {"sequence": "TGGGGTTTCC", "switch fluorescence ratio": "1.16 ± 0.32"},
      {"sequence": "GCATTAAAGT", "switch fluorescence ratio": "0.958 ± 0.033"},
      {"sequence": "GGTGCCGGTT", "switch fluorescence ratio": "0.997 ± 0.054"},
      {"sequence": "GCCCTCTCGA", "switch fluorescence ratio": "1.018 ± 0.0079"},
      {"sequence": "TGATGCATAA", "switch fluorescence ratio": "1.04 ± 0.034"},
      {"sequence": "ATTTGGATGG", "switch fluorescence ratio": "0.985 ± 0.023"},
      {"sequence": "TATAAAAATC", "switch fluorescence ratio": "1.07 ± 0.084"},
      {"sequence": "GATTTCTTAT", "switch fluorescence ratio": "0.999 ± 0.052"},
      {"sequence": "GGACTAGAGC", "switch fluorescence ratio": "1.01 ± 0.069"},
      {"sequence": "CGAAAACGTG", "switch fluorescence ratio": "0.976 ± 0.012"},
      {"sequence": "AAGTTTTCGG", "switch fluorescence ratio": "0.989 ± 0.052"},
      {"sequence": "ATACGTTTCG", "switch fluorescence ratio": "0.998 ± 0.03"},
      {"sequence": "TAGGGATGTA", "switch fluorescence ratio": "1.01 ± 0.016"},
      {"sequence": "TTGTCTCTTT", "switch fluorescence ratio": "0.9932 ± 0.0062"},
      {"sequence": "TTCTTTGAAT", "switch fluorescence ratio": "1.036 ± 0.0013"},
      {"sequence": "ATACTGGACT", "switch fluorescence ratio": "1.201 ± 0.0084"},
      {"sequence": "TTTGCGGTGG", "switch fluorescence ratio": "1.01 ± 0.075"},
      {"sequence": "CGGAGATCGG", "switch fluorescence ratio": "0.999 ± 0.013"},
      {"sequence": "CCGAGGGGGT", "switch fluorescence ratio": "1.81 ± 1.1"},
      {"sequence": "TAGGTTTGGG", "switch fluorescence ratio": "0.962 ± 0.025"},
      {"sequence": "AGGTTCACTT", "switch fluorescence ratio": "0.998 ± 0.025"},
      {"sequence": "TGTCAGGGGG", "switch fluorescence ratio": "1.01 ± 0.023"},
      {"sequence": "GAGAATCGTC", "switch fluorescence ratio": "1.05 ± 0.064"},
      {"sequence": "CGTGGGTGGG", "switch fluorescence ratio": "1.01 ± 0.036"},
      {"sequence": "CGGGGTTGGG", "switch fluorescence ratio": "1.01 ± 0.047"},
      {"sequence": "TTTGCATGTA", "switch fluorescence ratio": "1.02 ± 0.027"},
      {"sequence": "TTAAAGAGGG", "switch fluorescence ratio": "0.974 ± 0.054"},
      {"sequence": "CCATTGCTCG", "switch fluorescence ratio": "1.04 ± 0.05"}
    ]}
  ]
}
